Experimental data published in publication PMC4822050, “Hemi-methylated DNA opens a closed conformation of UHRF1 to facilitate its histone recognition” (Nature Communications, 2016).
Where a chain is given by its changes, count along the chain named.

Assays:
Test in all cases: ITC; 0.05 mM protein in the cell, 0.5 mM protein or peptide in the syringe, iTC200, 18 °C, 10 mM HEPES pH 8.0, 100 mM NaCl
Conditions in all cases: both partners purified
UHRF1^D334A&Δ627–674 = molecular target: T1, UHRF1^D334A&Δ627–674 (human, UniProt Q96T88 1-793, D334A | Δ627–674)
T1 construct: human UHRF1 (1–793)
T1 sequence (looked up): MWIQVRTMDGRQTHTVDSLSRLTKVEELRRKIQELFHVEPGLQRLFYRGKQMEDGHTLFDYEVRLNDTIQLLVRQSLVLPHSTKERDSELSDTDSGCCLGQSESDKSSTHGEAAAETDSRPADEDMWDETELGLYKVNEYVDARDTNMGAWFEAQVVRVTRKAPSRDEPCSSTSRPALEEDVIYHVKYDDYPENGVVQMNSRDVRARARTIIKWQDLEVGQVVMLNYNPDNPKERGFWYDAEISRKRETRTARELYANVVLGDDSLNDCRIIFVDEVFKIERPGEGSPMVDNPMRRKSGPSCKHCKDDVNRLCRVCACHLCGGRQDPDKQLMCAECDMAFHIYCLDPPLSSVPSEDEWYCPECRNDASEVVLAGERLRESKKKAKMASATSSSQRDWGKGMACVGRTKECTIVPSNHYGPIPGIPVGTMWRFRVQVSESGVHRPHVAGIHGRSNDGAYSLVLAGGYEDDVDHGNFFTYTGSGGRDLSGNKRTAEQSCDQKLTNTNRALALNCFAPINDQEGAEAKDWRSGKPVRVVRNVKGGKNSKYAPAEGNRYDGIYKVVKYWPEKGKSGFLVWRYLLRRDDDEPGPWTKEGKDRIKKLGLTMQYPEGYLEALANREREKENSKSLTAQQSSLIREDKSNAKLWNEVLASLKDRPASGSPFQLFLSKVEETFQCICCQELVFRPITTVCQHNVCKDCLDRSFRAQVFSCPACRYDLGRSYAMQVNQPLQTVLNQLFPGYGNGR

[1] = molecular target: T2, TTD–PHD of UHRF1 (residues 134–366) (human, UniProt Q96T88 134-366)
T2 sequence (looked up): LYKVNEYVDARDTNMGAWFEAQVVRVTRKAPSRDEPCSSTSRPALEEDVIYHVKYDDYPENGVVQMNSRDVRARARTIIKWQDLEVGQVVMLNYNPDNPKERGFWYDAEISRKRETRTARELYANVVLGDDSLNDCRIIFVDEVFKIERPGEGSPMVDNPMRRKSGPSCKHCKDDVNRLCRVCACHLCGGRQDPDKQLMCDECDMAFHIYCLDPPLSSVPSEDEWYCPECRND

UHRF1^Δ627–674 = molecular target: T3, UHRF1^Δ627–674 (human, UniProt Q96T88 1-793, Δ627–674)
T3 construct: also called spacer deletion mutant
T3 sequence (looked up): T1 sequence (looked up) with A334D

[2] = molecular target: T4, full-length UHRF1 (residues 1–793) (human, UniProt Q96T88 1-793)
T4 construct: human UHRF1, residues 1–793; monomer by gel filtration; also called wild-type UHRF1; ICBP90
T4 sequence (looked up): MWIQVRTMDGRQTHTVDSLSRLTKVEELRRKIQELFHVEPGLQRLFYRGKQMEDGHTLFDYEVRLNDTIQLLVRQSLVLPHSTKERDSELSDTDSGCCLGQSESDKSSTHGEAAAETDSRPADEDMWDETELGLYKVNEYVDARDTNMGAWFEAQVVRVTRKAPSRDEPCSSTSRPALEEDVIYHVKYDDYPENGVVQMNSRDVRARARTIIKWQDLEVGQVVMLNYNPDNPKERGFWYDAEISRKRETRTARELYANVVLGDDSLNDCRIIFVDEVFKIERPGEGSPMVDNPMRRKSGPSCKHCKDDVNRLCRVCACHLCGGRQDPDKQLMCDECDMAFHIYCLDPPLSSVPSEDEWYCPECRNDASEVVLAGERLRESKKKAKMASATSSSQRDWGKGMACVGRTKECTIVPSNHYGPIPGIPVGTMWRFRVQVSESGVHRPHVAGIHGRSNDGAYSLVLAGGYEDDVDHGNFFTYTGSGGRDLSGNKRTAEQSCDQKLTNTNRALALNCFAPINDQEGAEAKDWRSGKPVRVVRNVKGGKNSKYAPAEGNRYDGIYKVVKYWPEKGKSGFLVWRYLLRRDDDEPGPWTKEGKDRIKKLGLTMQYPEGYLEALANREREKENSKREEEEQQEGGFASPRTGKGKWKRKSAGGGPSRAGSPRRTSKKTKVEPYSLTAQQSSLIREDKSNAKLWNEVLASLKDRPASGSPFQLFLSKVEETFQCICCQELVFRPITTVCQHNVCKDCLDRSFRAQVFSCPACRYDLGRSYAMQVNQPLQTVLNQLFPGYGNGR

Kd (UHRF1^D334A&Δ627–674): 8.69 µM
Kd [1]: 0.15 µM
fold increase in binding affinity against full-length UHRF1 (UHRF1^Δ627–674): 4 fold
Kd [2]: 4.61 µM
Binder: ARTKQTARKSTGGKAPR (peptide, UniProt P68431 2-18, looked up, trimethyl-lysine at K9, histone H3, residues 1–17) [H3K9me3 peptide (1–17)]
